Where a chain is given by its changes, count along the chain named. One block for each molecule: values may come before it. Non-standard residues stand in square brackets, D forms with d. No end group written: not given here. pGlu = O=C1CC[C@@H](C(=O)O)N1
Tests used:
[1] = biological target: full length human CD32A on CHO cells (human) (UniProt P12318); experiment: FACS on CHO cells stably expressing full length human CD32A, bound antibody detected with fluorochrome-conjugated anti-Fab'
[2] = biological target: T1, human Aβ pE3-18 peptide, pEFRHDSGYEVHHQKLV (human); experiment: SPR, 1:1 Langmuir fit
T1 construct: The range 3-18 counts on the Aβ peptide; also called pE3-Aβ18; pE3-Aβ peptide
T1 peptide: [pGlu]FRHDSGYEVHHQKLV
Method: First a polyclonal α-human antibody was coupled to an SPR-Chip subsequent loaded with the humanized antibody until the Response Unit was more than 1000.
Kinetic measurement was performed at different concentrations (of 5 to 1000 nM) of AβpE3-18-peptide. The graphs of the measured series are shown as an overlay plot with the sensorgrams, corrected by the sensogram measuring the running buffer, aligned at the time of injection and the baseline adjusted to zero before injection. The results are evaluated according to a simple 1:1 interaction model (Langmuir fit), which promote the koff and kₒₙ rate constants.

Sequence of full length human CD32A on CHO cells (human) (P12318 34-317): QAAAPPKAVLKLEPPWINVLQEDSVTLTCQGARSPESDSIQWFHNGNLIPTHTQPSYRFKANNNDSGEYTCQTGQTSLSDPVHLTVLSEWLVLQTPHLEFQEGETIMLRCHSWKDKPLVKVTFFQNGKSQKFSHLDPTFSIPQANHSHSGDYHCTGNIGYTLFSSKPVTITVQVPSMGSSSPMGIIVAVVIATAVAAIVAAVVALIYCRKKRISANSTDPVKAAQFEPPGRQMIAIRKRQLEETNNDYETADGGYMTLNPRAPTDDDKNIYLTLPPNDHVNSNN

EC50 (read off the curve) [1]: 100 nM
Molecule: antibody comprising the human IgG1 Fc wild-type region of SEQ ID NO: 73

EC50 (read off the curve) [1]: 100 nM
Molecule: antibody comprising the K324A mutant variant of the human IgG1 Fc region (SEQ ID NO: 74)

Kd [2]: 5.09 nM | koff [2]: 0.00323 s⁻¹ | kon [2]: 635000 M⁻¹ s⁻¹
B1: humanized antibody clone #6 sequence variant VH: SEQ ID NO: 27, VL: SEQ ID NO: 14 (antibody, human IgG1, V domains shown)
VH: QVQLVQSGAEVKKSGASVKVSCKASGYSFTGHTMNWVRQAPGQGLEWMGLINPSNGVTRYNQKFQGRVTITRDTSTTTVHMELTSLTSEDTATYYCTREAKREWDETYWGQGTLVTVSS
VL: DVVMTQSPLSLPVTLGQPASISCKSSQSLLYSDGKTYLNWFQQRPGQSPRRLTYLVSKLDSGVPDRFSGSGSGTDFTLKISRVEAEDVGVYYCVQGTHFPFTFGGGTKVEIK

Kd [2]: 15.5 nM | koff [2]: 0.00415 s⁻¹ | kon [2]: 267000 M⁻¹ s⁻¹
B2: humanized antibody clone #6 sequence variant VH: SEQ ID NO: 27, VL: SEQ ID NO: 15 (antibody, human IgG1, V domains shown)
VH: B1 VH
VL: B1 VL with Y31H

Kd [2]: 9.36 nM | koff [2]: 0.00576 s⁻¹ | kon [2]: 616000 M⁻¹ s⁻¹
B3: humanized antibody clone #6 sequence variant VH: SEQ ID NO: 24, VL: SEQ ID NO: 14 (antibody, human IgG1, V domains shown)
VH: B1 VH with T93V
VL: B1 VL

Kd [2]: 7.35 nM | koff [2]: 0.00413 s⁻¹ | kon [2]: 562000 M⁻¹ s⁻¹
B4: humanized antibody clone #6 sequence variant VH: SEQ ID NO: 27, VL: SEQ ID NO: 13 (antibody, human IgG1, V domains shown)
VH: B1 VH
VL: B1 VL with T53A

Kd [2]: 8.43 nM | koff [2]: 0.00357 s⁻¹ | kon [2]: 423000 M⁻¹ s⁻¹
B5: humanized antibody clone #6 sequence variant VH: SEQ ID NO: 70, VL: SEQ ID NO: 14 (antibody, human IgG1, V domains shown)
VH: B1 VH with G56E
VL: B1 VL

Source: patent publication US20180140689A1 (PROBIODRUG, published 2018)
